Reference: publication PMC12002230, “The cryo-EM structure and physical basis for anesthetic inhibition of the THIK1 K2P channel” (Proceedings of the National Academy of Sciences of the …, 2025)

Target: the molecule itself
Assay: cryo-EM structure; purified THIK1EM at 2.4 mg/mL in 150 mM KCl, 20 mM Tris pH 8, 0.01% GDN; 300 kV Titan Krios, RELION; 3.2 Å

B1: C-terminally truncated human THIK1 (KCNK13), residues 1 to 309 (domain or fragment, UniProt Q9HB14 1-309, looked up)
chain: MAGRGFSWGPGHLNEDNARFLLLAALIVLYLLGGAAVFSALELAHERQAKQRWEERLANFSRGHNLSRDELRGFLRHYEEATRAGIRVDNVRPRWDFTGAFYFVGTVVSTIGFGMTTPATVGGKIFLIFYGLVGCSSTILFFNLFLERLITIIAYIMKSCHQRQLRRRGALPQESLKDAGQCEVDSLAGWKPSVYYVMLILCTASILISCCASAMYTPIEGWSYFDSLYFCFVAFSTIGFGDLVSSQNAHYESQGLYRFANFVFILMGVCCIYSLFNVISILIKQSLNWILRKMDSGCCPQCQRGLLRS
modifications: N-glycosylation at N59 and N65
notes: C-terminally truncated; The N-terminal GFP-His10 tags were removed by PreScission (3C) protease at LEVLFQ/GP; residues of the cleavage site probably remain at the N-terminus (surmised); Homodimeric K2P channel in GDN detergent; also called THIK1EM; hTHIK1EM; source: HEK293 GnTi- cells, baculovirus (BacMam) infection, purified (GFP-nanobody resin, 3C cleavage, Superdex 200 in GDN); not shown: GFP, …
With B1 the “stoichiometry N” value was 2.
